Assay results taken from patent US20190185537A1 (AstraZeneca / MedImmune, published 2019).
Numbered stars: 1 amine (or outer) side, 2 acyl side, 3 side chain; on linkers, the order of the positions; unused ones are H or OH. Side chains are listed from the residue outwards. Ends that are not written are not given here. * marks the point of attachment. γGlu = O=C(O)[C@H](CCC(=O)[*:2])N[*:1]; Palmitoyl = CCCCCCCCCCCCCCCC(=O)*; Ahx = NCCCCCC(=O)O

B1: g744 (peptide)
peptide: HSQGTFTSDYSKYLDSRRAK([γGlu-Palmitoyl])DFVQWLEAGG-NH2
modifications: N-terminus assumed
SMILES: CCCCCCCCCCCCCCCC(=O)N[C@@H](CCC(=O)NCCCC[C@H](NC(=O)[C@H](C)NC(=O)[C@H](CCCNC(=N)N)NC(=O)[C@H](CCCNC(=N)N)NC(=O)[C@H](CO)NC(=O)[C@H](CC(=O)O)NC(=O)[C@H](CC(C)C)NC(=O)[C@H](Cc1ccc(O)cc1)NC(=O)[C@H](CCCCN)NC(=O)[C@H](CO)NC(=O)[C@H](Cc1ccc(O)cc1)NC(=O)[C@H](CC(=O)O)NC(=O)[C@H](CO)NC(=O)[C@@H](NC(=O)[C@H](Cc1ccccc1)NC(=O)[C@@H](NC(=O)CNC(=O)[C@H](CCC(N)=O)NC(=O)[C@H](CO)NC(=O)[C@@H](N)Cc1c[nH]cn1)[C@@H](C)O)[C@@H](C)O)C(=O)N[C@@H](CC(=O)O)C(=O)N[C@@H](Cc1ccccc1)C(=O)N[C@H](C(=O)N[C@@H](CCC(N)=O)C(=O)N[C@@H](Cc1c[nH]c2ccccc12)C(=O)N[C@@H](CC(C)C)C(=O)N[C@@H](CCC(=O)O)C(=O)N[C@@H](C)C(=O)NCC(=O)NCC(N)=O)C(C)C)C(=O)O
B2: g746 (peptide)
peptide: HSQGTFTSDYSKYLDSRRAQDFVK([γGlu-Palmitoyl])WLEAGG-NH2
modifications: N-terminus assumed
SMILES: CCCCCCCCCCCCCCCC(=O)N[C@@H](CCC(=O)NCCCC[C@H](NC(=O)[C@@H](NC(=O)[C@H](Cc1ccccc1)NC(=O)[C@H](CC(=O)O)NC(=O)[C@H](CCC(N)=O)NC(=O)[C@H](C)NC(=O)[C@H](CCCNC(=N)N)NC(=O)[C@H](CCCNC(=N)N)NC(=O)[C@H](CO)NC(=O)[C@H](CC(=O)O)NC(=O)[C@H](CC(C)C)NC(=O)[C@H](Cc1ccc(O)cc1)NC(=O)[C@H](CCCCN)NC(=O)[C@H](CO)NC(=O)[C@H](Cc1ccc(O)cc1)NC(=O)[C@H](CC(=O)O)NC(=O)[C@H](CO)NC(=O)[C@@H](NC(=O)[C@H](Cc1ccccc1)NC(=O)[C@@H](NC(=O)CNC(=O)[C@H](CCC(N)=O)NC(=O)[C@H](CO)NC(=O)[C@@H](N)Cc1c[nH]cn1)[C@@H](C)O)[C@@H](C)O)C(C)C)C(=O)N[C@@H](Cc1c[nH]c2ccccc12)C(=O)N[C@@H](CC(C)C)C(=O)N[C@@H](CCC(=O)O)C(=O)N[C@@H](C)C(=O)NCC(=O)NCC(N)=O)C(=O)O
B3: g702 (peptide)
peptide: HSQGTFTSDYSK([γGlu-Palmitoyl])YLDSERAQDFVQWLVAGG-NH2
modifications: N-terminus assumed
SMILES: CCCCCCCCCCCCCCCC(=O)N[C@@H](CCC(=O)NCCCC[C@H](NC(=O)[C@H](CO)NC(=O)[C@H](Cc1ccc(O)cc1)NC(=O)[C@H](CC(=O)O)NC(=O)[C@H](CO)NC(=O)[C@@H](NC(=O)[C@H](Cc1ccccc1)NC(=O)[C@@H](NC(=O)CNC(=O)[C@H](CCC(N)=O)NC(=O)[C@H](CO)NC(=O)[C@@H](N)Cc1c[nH]cn1)[C@@H](C)O)[C@@H](C)O)C(=O)N[C@@H](Cc1ccc(O)cc1)C(=O)N[C@@H](CC(C)C)C(=O)N[C@@H](CC(=O)O)C(=O)N[C@@H](CO)C(=O)N[C@@H](CCC(=O)O)C(=O)N[C@@H](CCCNC(=N)N)C(=O)N[C@@H](C)C(=O)N[C@@H](CCC(N)=O)C(=O)N[C@@H](CC(=O)O)C(=O)N[C@@H](Cc1ccccc1)C(=O)N[C@H](C(=O)N[C@@H](CCC(N)=O)C(=O)N[C@@H](Cc1c[nH]c2ccccc12)C(=O)N[C@@H](CC(C)C)C(=O)N[C@H](C(=O)N[C@@H](C)C(=O)NCC(=O)NCC(N)=O)C(C)C)C(C)C)C(=O)O
B4: g318 (peptide)
peptide: HSQGTFTSDYSKYLDSRRAQDFVQWLVAGGSSGGSSK(Palmitoyl)-NH2
modifications: N-terminus assumed
SMILES: CCCCCCCCCCCCCCCC(=O)NCCCC[C@H](NC(=O)[C@H](CO)NC(=O)[C@H](CO)NC(=O)CNC(=O)CNC(=O)[C@H](CO)NC(=O)[C@H](CO)NC(=O)CNC(=O)CNC(=O)[C@H](C)NC(=O)[C@@H](NC(=O)[C@H](CC(C)C)NC(=O)[C@H](Cc1c[nH]c2ccccc12)NC(=O)[C@H](CCC(N)=O)NC(=O)[C@@H](NC(=O)[C@H](Cc1ccccc1)NC(=O)[C@H](CC(=O)O)NC(=O)[C@H](CCC(N)=O)NC(=O)[C@H](C)NC(=O)[C@H](CCCNC(=N)N)NC(=O)[C@H](CCCNC(=N)N)NC(=O)[C@H](CO)NC(=O)[C@H](CC(=O)O)NC(=O)[C@H](CC(C)C)NC(=O)[C@H](Cc1ccc(O)cc1)NC(=O)[C@H](CCCCN)NC(=O)[C@H](CO)NC(=O)[C@H](Cc1ccc(O)cc1)NC(=O)[C@H](CC(=O)O)NC(=O)[C@H](CO)NC(=O)[C@@H](NC(=O)[C@H](Cc1ccccc1)NC(=O)[C@@H](NC(=O)CNC(=O)[C@H](CCC(N)=O)NC(=O)[C@H](CO)NC(=O)[C@@H](N)Cc1c[nH]cn1)[C@@H](C)O)[C@@H](C)O)C(C)C)C(C)C)C(N)=O
B5: g701 (peptide)
peptide: HGQGTFTSDYSK([γGlu-Palmitoyl])YLDSERAQDFVQWLERGG-NH2
modifications: N-terminus assumed
SMILES: CCCCCCCCCCCCCCCC(=O)N[C@@H](CCC(=O)NCCCC[C@H](NC(=O)[C@H](CO)NC(=O)[C@H](Cc1ccc(O)cc1)NC(=O)[C@H](CC(=O)O)NC(=O)[C@H](CO)NC(=O)[C@@H](NC(=O)[C@H](Cc1ccccc1)NC(=O)[C@@H](NC(=O)CNC(=O)[C@H](CCC(N)=O)NC(=O)CNC(=O)[C@@H](N)Cc1c[nH]cn1)[C@@H](C)O)[C@@H](C)O)C(=O)N[C@@H](Cc1ccc(O)cc1)C(=O)N[C@@H](CC(C)C)C(=O)N[C@@H](CC(=O)O)C(=O)N[C@@H](CO)C(=O)N[C@@H](CCC(=O)O)C(=O)N[C@@H](CCCNC(=N)N)C(=O)N[C@@H](C)C(=O)N[C@@H](CCC(N)=O)C(=O)N[C@@H](CC(=O)O)C(=O)N[C@@H](Cc1ccccc1)C(=O)N[C@H](C(=O)N[C@@H](CCC(N)=O)C(=O)N[C@@H](Cc1c[nH]c2ccccc12)C(=O)N[C@@H](CC(C)C)C(=O)N[C@@H](CCC(=O)O)C(=O)N[C@@H](CCCNC(=N)N)C(=O)NCC(=O)NCC(N)=O)C(C)C)C(=O)O

What follows are binders tested against human glucagon receptor (human, UniProt P47871 26-477) (assay: cell-based or functional assay).
Sequence of human glucagon receptor (P47871 26-477): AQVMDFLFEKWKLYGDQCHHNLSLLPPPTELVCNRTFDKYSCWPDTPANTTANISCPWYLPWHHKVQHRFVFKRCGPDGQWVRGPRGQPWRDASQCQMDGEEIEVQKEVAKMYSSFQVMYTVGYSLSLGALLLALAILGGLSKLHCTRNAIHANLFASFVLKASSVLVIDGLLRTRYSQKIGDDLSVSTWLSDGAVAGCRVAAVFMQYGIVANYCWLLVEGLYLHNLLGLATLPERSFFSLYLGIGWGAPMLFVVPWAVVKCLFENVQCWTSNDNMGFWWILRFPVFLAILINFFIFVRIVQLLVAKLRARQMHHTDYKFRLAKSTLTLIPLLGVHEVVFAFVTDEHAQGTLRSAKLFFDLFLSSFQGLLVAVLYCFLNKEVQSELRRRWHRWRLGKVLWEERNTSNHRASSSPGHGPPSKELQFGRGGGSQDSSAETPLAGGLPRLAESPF

Row | Binder | cAMP EC50 (assay 1)
1 | B1 | 39.2 pM
2 | B2 | 35.4 pM
3 | B3 | 1490 pM
4 | B4 | 9040 pM
5 | HSQGTFTSDYSKYLDSERAK([Ahx-Palmitoyl])DFVAWLERGG-NH2 (not fully specified) [g787] | 43.6 pM
6 | HSQGTFTSDYSKYLDSRRAQDFVQWLVAGGGGGGK-NH2 [g325] | 10.3 pM
7 | HSQGTFTSDYSKYLDSRRAQDFVQWLVAGGSGSGSG-NH2 [g402] | 59.6 pM
8 | B5 | 3830 pM

These binders were tested against human GLP-1 receptor (human, UniProt P43220 24-463) (assay: cell-based or functional assay).
Sequence of human GLP-1 receptor (P43220 24-463): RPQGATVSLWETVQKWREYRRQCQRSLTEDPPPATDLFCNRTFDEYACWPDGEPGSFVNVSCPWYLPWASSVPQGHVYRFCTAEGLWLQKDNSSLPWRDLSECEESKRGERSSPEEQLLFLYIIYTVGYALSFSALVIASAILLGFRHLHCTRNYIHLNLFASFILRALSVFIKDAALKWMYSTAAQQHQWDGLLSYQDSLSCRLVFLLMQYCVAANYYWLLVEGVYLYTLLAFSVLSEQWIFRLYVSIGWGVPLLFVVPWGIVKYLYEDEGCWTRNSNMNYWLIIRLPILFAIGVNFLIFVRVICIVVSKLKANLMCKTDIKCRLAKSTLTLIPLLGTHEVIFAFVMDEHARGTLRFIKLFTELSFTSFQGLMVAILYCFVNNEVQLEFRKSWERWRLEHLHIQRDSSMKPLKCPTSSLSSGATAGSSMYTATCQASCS

Row | Binder | cAMP EC50 (assay 1)
9 | B1 | 2.45 nM
10 | B2 | 11.5 nM
11 | B3 | 3.35 nM
12 | B4 | 1.14 nM
13 | HSQGTFTSDYSKYLDSERAK([Ahx-Palmitoyl])DFVAWLERGG-NH2 (not fully specified) [g787] | 6.65 nM
14 | HSQGTFTSDYSKYLDSRRAQDFVQWLVAGGGGGGK-NH2 [g325] | 0.0261 nM
15 | HSQGTFTSDYSKYLDSRRAQDFVQWLVAGGSGSGSG-NH2 [g402] | 0.0857 nM
16 | B5 | 7.4 nM
